Patent US20070054332A1, “Syndecan 1 ectodomain inhibits cancer” (priority 2005, published 2007)
“Also recorded” adds a separate entry of the source.

Columns and labels:
[1] = test system: MDA-MB-231 cell spreading; conditions: soluble ectodomain, dose-dependent; cited from earlier work
[2] = test system: MDA-MB-231 human mammary carcinoma cells; assay: Rescue of proliferation in siRNA-treated cells by mouse Sdc1 constructs; type: cell-based; conditions: MDA-MB-231, endogenous human Sdc1 silenced, mouse construct expressed
Description: Full length mouse Sdc1 (FLmS1),GPI linked mS1ED (GPImS1ED) or a construct of mouse Sdc1 in which the heparan sulfate attachment sites are mutated (TDM) were stably transfected into MDA-MB-231 cells and selected with 1.5 mg/ml G418 (Gibco BRL). These stable transfectants were maintained in culture in the presence of G418 and were checked periodically for constant expression of FLmS 1, GPImS1ED or TDM. Cells expressing these transgenes at similar levels were sorted by FACS before the experiments. Cells transfected with the empty pcDNA3 vector (NEO) were used as control.
Silencing of human Sdc1 with specific short interfering RNA (siRNA). Purified, duplexed siRNAs specific for human Sdc1 were purchased from Ambion (Austin, Tex.). The siRNA sequences targeting human Sdc1 were: hsdc1-1, […]; hsdc1-2, […]; hsdc1-3, […]. […]
Assessment of Cell Growth. To quantify cell proliferation, cells grown in matrigel (3D culture) or on top of matrigel (2D culture) were released from the matrigel by 45-60 min incubation at 37° C. with Dispase (BD Biosciences), washed with Dulbecco's modified Eagle's medium (DMEM) 2-3 times and resuspended into 400 ul fresh DMEM for cell counting by hemocytometer. Triplicate wells, replicated in at least three experiments, were used for the quantification.

[3] = test system: S115 mouse mammary tumor cells; conditions: nanomolar concentrations; Mali et al. (1994); cited from earlier work
MDA-MB-231 cell = conditions: soluble ectodomain, dose-dependent; cited from earlier work
αvβ5 integrin = target: T1, αvβ5 integrin (Mus musculus, UniProt O70309+P43406); conditions: B82L mouse fibroblasts, competing concentrations; McQuade et al., 2006; cited from earlier work
T1 construct: B82L mouse fibroblasts expressing this integrin; endogenous in cells; host or cells: B82L mouse fibroblasts
T1 sequence (P43406 31-1044): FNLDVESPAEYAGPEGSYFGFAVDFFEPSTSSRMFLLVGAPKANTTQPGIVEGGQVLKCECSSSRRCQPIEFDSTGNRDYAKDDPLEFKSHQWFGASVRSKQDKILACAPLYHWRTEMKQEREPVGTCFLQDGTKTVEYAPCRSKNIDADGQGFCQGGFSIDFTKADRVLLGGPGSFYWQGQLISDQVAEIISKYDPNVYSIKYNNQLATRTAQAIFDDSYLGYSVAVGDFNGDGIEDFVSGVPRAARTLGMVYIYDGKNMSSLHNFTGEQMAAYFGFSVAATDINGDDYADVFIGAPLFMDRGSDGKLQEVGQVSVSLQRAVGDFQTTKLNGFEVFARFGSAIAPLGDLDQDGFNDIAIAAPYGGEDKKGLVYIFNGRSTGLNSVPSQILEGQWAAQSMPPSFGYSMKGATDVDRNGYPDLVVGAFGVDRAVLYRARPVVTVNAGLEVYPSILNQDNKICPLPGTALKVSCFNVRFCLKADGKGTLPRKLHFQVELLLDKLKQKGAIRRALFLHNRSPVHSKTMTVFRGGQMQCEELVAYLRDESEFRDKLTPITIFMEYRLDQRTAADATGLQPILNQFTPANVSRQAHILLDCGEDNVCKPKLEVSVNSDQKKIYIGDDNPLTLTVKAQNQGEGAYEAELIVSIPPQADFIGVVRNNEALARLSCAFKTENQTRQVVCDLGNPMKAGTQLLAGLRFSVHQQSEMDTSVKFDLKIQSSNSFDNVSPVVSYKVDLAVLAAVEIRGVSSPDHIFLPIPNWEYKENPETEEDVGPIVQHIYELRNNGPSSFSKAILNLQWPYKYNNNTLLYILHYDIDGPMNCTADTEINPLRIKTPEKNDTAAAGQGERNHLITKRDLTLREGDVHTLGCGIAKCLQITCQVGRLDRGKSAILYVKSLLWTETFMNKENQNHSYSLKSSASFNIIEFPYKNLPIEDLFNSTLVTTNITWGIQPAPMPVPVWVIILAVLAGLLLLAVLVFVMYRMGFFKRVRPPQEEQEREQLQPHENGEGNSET
T1 sequence (O70309 24-798): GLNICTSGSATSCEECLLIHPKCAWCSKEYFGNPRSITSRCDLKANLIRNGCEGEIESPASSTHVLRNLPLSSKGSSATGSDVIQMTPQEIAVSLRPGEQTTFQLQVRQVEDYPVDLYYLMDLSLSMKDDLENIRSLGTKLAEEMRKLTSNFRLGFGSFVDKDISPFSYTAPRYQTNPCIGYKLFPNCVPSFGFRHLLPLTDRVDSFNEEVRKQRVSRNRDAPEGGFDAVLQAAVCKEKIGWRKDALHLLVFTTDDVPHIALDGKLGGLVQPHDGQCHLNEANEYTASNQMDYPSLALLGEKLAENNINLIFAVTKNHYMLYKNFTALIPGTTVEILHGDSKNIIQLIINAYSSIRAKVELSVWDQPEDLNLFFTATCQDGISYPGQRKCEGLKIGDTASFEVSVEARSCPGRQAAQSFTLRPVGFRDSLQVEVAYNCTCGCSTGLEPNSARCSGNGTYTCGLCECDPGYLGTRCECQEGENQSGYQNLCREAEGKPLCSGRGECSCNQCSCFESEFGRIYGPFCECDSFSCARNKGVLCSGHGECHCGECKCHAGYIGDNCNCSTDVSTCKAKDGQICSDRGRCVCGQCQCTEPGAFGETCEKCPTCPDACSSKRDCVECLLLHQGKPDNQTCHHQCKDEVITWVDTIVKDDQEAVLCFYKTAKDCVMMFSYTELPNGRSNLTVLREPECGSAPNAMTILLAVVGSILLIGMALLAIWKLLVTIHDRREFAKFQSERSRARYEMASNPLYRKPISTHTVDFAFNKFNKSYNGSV

[4] = target: T2, Sdc1 and the αvβ5 integrin complex (Mus musculus, UniProt O70309+P43406); conditions: B82L cells, competing concentration; McQuade et al., 2006; cited from earlier work
T2 construct: immunoprecipitation of Sdc1 from the B82L cells co-precipitates the integrin with the Sdc1; endogenous in cells; host or cells: B82L mouse fibroblasts
T2 sequence (P43406 31-1044): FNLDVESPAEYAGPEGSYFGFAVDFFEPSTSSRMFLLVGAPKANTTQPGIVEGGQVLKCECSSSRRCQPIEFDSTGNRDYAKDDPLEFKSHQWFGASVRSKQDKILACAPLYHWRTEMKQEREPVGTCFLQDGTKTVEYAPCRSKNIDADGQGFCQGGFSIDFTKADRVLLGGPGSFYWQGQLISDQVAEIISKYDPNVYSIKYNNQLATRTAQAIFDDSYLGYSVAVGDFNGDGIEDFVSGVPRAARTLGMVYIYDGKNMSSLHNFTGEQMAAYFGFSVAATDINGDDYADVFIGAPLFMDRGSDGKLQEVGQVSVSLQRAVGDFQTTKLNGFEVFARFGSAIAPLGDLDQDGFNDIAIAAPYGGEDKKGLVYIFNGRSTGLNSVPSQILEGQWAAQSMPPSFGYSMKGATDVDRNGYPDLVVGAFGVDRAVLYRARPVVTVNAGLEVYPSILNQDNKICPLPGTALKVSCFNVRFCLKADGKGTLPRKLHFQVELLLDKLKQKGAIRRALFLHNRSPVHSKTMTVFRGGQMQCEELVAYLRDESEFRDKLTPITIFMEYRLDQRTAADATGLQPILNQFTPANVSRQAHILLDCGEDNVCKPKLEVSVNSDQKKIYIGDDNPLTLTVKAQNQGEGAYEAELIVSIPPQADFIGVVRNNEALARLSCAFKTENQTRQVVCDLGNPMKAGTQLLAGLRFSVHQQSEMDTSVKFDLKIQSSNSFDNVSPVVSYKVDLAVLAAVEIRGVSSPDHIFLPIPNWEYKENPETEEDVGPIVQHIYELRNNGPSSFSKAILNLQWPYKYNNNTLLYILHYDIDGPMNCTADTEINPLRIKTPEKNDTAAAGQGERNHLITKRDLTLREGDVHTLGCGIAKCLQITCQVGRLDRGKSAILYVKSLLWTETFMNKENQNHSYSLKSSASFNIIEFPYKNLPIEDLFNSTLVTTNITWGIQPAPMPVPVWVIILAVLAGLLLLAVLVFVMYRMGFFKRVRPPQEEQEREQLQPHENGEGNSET
T2 sequence (O70309 24-798): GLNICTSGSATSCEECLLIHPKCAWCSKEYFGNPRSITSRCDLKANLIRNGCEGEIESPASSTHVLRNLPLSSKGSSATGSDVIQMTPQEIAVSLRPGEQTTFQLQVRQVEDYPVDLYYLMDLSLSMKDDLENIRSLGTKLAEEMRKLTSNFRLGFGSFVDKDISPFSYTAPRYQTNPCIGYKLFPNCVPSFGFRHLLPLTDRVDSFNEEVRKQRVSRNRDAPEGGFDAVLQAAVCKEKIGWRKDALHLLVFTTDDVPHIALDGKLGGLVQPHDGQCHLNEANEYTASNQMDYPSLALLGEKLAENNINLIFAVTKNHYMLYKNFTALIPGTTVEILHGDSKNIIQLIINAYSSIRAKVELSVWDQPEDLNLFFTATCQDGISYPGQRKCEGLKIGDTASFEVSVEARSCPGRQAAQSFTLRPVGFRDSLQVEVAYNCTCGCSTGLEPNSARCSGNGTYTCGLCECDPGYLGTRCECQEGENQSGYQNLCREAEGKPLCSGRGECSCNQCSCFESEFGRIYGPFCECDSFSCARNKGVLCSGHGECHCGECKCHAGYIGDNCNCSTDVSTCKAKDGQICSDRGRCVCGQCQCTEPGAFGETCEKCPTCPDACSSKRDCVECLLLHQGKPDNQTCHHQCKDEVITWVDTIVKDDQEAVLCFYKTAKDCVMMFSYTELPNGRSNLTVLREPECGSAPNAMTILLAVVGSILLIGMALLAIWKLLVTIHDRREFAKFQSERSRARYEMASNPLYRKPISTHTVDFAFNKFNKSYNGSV

B1: soluble syndecan-4 ectodomain: soluble syndecan-4 ectodomain, specificity control (protein, UniProt P31431 19-145, looked up)
extracellular domain: ESIRETEVIDPQDLLEGRYFSGALPDDEDVVGPGQESDDFELSGSGDLDDLEDSMIGPEVVHPLVPLDNHIPERAGSGSQVPTEPKKLEENEVIPKRISPVEESEDVSNKVSMSSTVQGSNIFERTE
modifications: extracellular domain
notes: soluble syndecan-4 ectodomain, specificity control
In the case of B1, the “inhibition of MDA-MB-231 cell spreading” value [1] is listed as “fails to compete”.

B2: mouse Sdc1: Full length mouse Sdc1 stably transfected into MDA-MB-231 cells (protein, UniProt P18828 1-311, looked up)
chain: MRRAALWLWLCALALRLQPALPQIVAVNVPPEDQDGSGDDSDNFSGSGTGALPDTLSRQTPSTWKDVWLLTATPTAPEPTSSNTETAFTSVLPAGEKPEEGEPVLHVEAEPGFTARDKEKEVTTRPRETVQLPITQRASTVRVTTAQAAVTSHPHGGMQPGLHETSAPTAPGQPDHQPPRVEGGGTSVIKEVVEDGTANQLPAGEGSGEQDFTFETSGENTAVAAVEPGLRNQPPVDEGATGASQSLLDRKEVLGGVIAGGLVGLIFAVCLVAFMLYRMKKKDEGSYSLEEPKQANGGAYQKPTKQEEFYA
modifications: full-length
notes: Full length mouse Sdc1 stably transfected into MDA-MB-231 cells
In the case of B2, the “rescue of proliferation in siRNA-treated cells” value [2] is reported as “Rescue of proliferation; also recorded: rescues proliferation”.

B3: free ectodomain: free ectodomain from culture medium of syndecan 1-transfected S115 or normal murine mammary gland cells, bearing heparan sulfate (Mali et al., 1994) (protein, UniProt P18828 23-255, looked up)
extracellular domain: QIVAVNVPPEDQDGSGDDSDNFSGSGTGALPDTLSRQTPSTWKDVWLLTATPTAPEPTSSNTETAFTSVLPAGEKPEEGEPVLHVEAEPGFTARDKEKEVTTRPRETVQLPITQRASTVRVTTAQAAVTSHPHGGMQPGLHETSAPTAPGQPDHQPPRVEGGGTSVIKEVVEDGTANQLPAGEGSGEQDFTFETSGENTAVAAVEPGLRNQPPVDEGATGASQSLLDRKEVLG
modifications: extracellular domain heparan sulfate
For B3, the “growth of S115 tumor cells” value [3] is listed as “suppress the growth”.

B4: Soluble murine Sdc1 ectodomain: soluble murine Sdc1 ectodomain (Beauvais and Rapraeger, 2003) (protein, UniProt P18828 23-255, looked up)
extracellular domain: QIVAVNVPPEDQDGSGDDSDNFSGSGTGALPDTLSRQTPSTWKDVWLLTATPTAPEPTSSNTETAFTSVLPAGEKPEEGEPVLHVEAEPGFTARDKEKEVTTRPRETVQLPITQRASTVRVTTAQAAVTSHPHGGMQPGLHETSAPTAPGQPDHQPPRVEGGGTSVIKEVVEDGTANQLPAGEGSGEQDFTFETSGENTAVAAVEPGLRNQPPVDEGATGASQSLLDRKEVLG
modifications: extracellular domain
For B4, the “inhibition of MDA-MB-231 cell spreading” value [1] is given as “competitively inhibits” and the “inhibition in short-term migration assays” value (MDA-MB-231 cell) is given as “competitively inhibits”.

B5: recombinant Sdc1 ectodomain: recombinant Sdc1 ectodomain added at competing concentrations (McQuade et al., 2006) (protein, UniProt P18828 23-255, looked up)
extracellular domain: QIVAVNVPPEDQDGSGDDSDNFSGSGTGALPDTLSRQTPSTWKDVWLLTATPTAPEPTSSNTETAFTSVLPAGEKPEEGEPVLHVEAEPGFTARDKEKEVTTRPRETVQLPITQRASTVRVTTAQAAVTSHPHGGMQPGLHETSAPTAPGQPDHQPPRVEGGGTSVIKEVVEDGTANQLPAGEGSGEQDFTFETSGENTAVAAVEPGLRNQPPVDEGATGASQSLLDRKEVLG
modifications: extracellular domain
For B5, the αvβ5 integrin activity (αvβ5 integrin) is listed as “inactivated” and the “co-precipitation of the integrin with Sdc1” value [4] is listed as “disrupted”.
